# Experimental data as given in FireProtDB (doi:10.1021/bi00492a006).
# B1: Ribonuclease wild type, P00648 (protein)
# chain: MMKMEGIALKKRLSWISVCLLVLVSAAGMLFSTAAKTETSSHKAHTEAQVINTFDGVADYLQTYHKLPDNYITKSEAQALGWVASKGNLADVAPGKSIGGDIFSNREGKLPGKSGRTWREADINYTSGFRNSDRILYSSDWLIYKTTDHYQTFTKIR
# Conditions: Bacillus amyloliquefaciens; pH 6.3; 25 °C; Urea; Fluorescence; MES-NaOH 50 mM; reversible: yes; whole UniProt chain shown
protein,measurement,value
B1,denaturant m value,2.21 kcal/mol/M
same,denaturant midpoint (higher = more stable),4.53 M
same,unfolding free energy,10 kcal/mol
